Here are results for 40 sequences from the nanobody polyreactivity screen of Harvey et al. (2022).

The data set is described as follows: yeast display, Sf9 membrane polyspecificity reagent, FACS + sequencing; frameworks hold sequencing errors. The procedure, abridged: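 Galactose induction of a Saccharomyces cerevisiae BJ5465 synthetic nanobody display library ran 36–48 hours. The cells were then stained for 1 hour at 4 °C with 10% biotinylated, detergent-solubilized Sf9 membrane reagent, pulled down on streptavidin microbeads and FACS-sorted into low and high (top ~1%) gates on expression and reagent-binding fluorescence. Labels for polyreactivity follow the gate of origin.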
For “QVQLVESGGGLVQAGGSLRLSCAASGFTFNDYAMGWYRQAPGKERELVAAIDWSGGRTYYADSVKGRFTISRDNAKNTVYLQMNSLKPEDTAVYYCATEYYDGYFPTFDYDYWGQGTQVTVSS”, the “polyreactivity (PSR sort gate)” value was “low polyreactivity”. With “QVQLVESGGGLVQAGGSLRLSCAASGFTFNDYAMGWYRQAPGKERELVAAISKSGSRTYYADSVKGRFTISRDNAMNTVYLQMNSLKPEDTAVYYCNALPSYYGTYDYWGQGTQVTVSS” the entry was “high polyreactivity”. On to “QVQLVESGGGLVQAGGSLRLSCAASGFTFNFYAMGWYRQAPGKERELVASITSSGARTYYADSVKGRFTISRDNAKNSVYLQMNSLKPEDTAVYYCAARVYRYSASRAYDYWGQGTQVTVSS”, for which the “polyreactivity (PSR sort gate)” value is reported as “high polyreactivity”. With “QVQLVESGGGLVQAGGSLRLSCAASGFTFNGYAMGWYRQAPGKERELVAGITRRGGITYYADSVKGRFTISRDNAKNTVYLQMNCLKPEDTAVYYCARDYIGHALIHHASLYYYWGQGTQVTVSS” the entry was “high polyreactivity”; with “QVQLVESGGGLVQAGGSLRLSCAASGFTFNLYDMGWYRQAPGKERELVAAINWSGGTYYADSVKGRFTISRDNAKNTVYLQMNSLKPEDPAVYYCAADFPYTPWSYHHHVWSPDFDYWGQGTQVTVSS”, “low polyreactivity”; with “QVQLVESGGGLVQAGGSLRLSCAASGFTFNPNAMGWYRQAPGKERELVAPITRSGGSTYYADSVKGRFTISRDNAKNTVYLQMNSLKPEDTAVYYCNAPFRVSTTRRRYPGIDSHYYWGQGTQVTVSS”, “high polyreactivity”. On to “QVQLVESGGGLVQAGGSLRLSCAASGFTFNQNAMGWYRQAPGKERELVAAISASGGSTYYADSVKGRFTISRDNAKNTVYLQMNSLKPEDTAVYYCAARGTYRYTKYNYWGQGTQVTVSS”, for which the “polyreactivity (PSR sort gate)” value is “high polyreactivity”.

With “QVQLVESGGGLVQAGGSLRLSCAASGFTFNRNAMGWYRQAPGKERELVAAISWSGGSTYYADSVKGRFTISRDNAKYTVYLQMHSLKPEDTAVYYCAQGYRRVYGPFYYWGQGTQVTVSS”, the “polyreactivity (PSR sort gate)” value was “low polyreactivity”. As for “QVQLVESGGGLVQAGGSLRLSCAASGFTFNRYAMGWYRQAPGQERELVAAISRSGGSTSYADSVKGRFTISRDNAKKTVYLPMHSLKPEDTAVYYCAADRVWYLYYDYNYWGQGTQVTVSS”, the “polyreactivity (PSR sort gate)” value is reported as “high polyreactivity”.

For “QVQLVESGGGLVQAGGSLRLSCAASGFTFNSYAMGWYRQAPGKERELVAAITWRGGSTYADSVKGRFTISRDNAKNTVYLQMNSLKPEDTAVYYCNAVSDVKRYDYWGQGTQVTVSS”, the “polyreactivity (PSR sort gate)” value was “high polyreactivity”. The value for “QVQLVESGGGLVQAGGSLRLSCAASGFTFNTNAMGWYRQAPGKETELVAAITWTGGRTYYADSVKGRFTISRDNAKNTVHLQMNSLKPEDTAVYYCAAESFGYSIDITDHEYWGQGTQVTVSS” was “high polyreactivity”. “QVQLVESGGGLVQAGGSLRLSCAASGFTFNYNARGWYSQAPGNDRELVAAIRRSGGSTYYADSGKGRFTISRDNAKNTVYLQMNSLKPEDTAVYYCAARQSFLYGYWGQGTQVTVSS”: the “polyreactivity (PSR sort gate)” value is “high polyreactivity”. The value for “QVQLVESGGGLVQAGGSLRLSCAASGFTFNYYAMGWYRQAPGKEREFVAAISRSAGSTYYADSVKGRFTISRDNAKNTVYLQMNSLKPEDTAVYYCAADPRSKGFYYGYDYWGQGTQVTVSS” was “high polyreactivity”.

For “QVQLVESGGGLVQAGGSLRLSCAASGFTFNYYAMGWYRQAPGKERELVAAISGRGGSTYYADSVKGRFTISRDNAKNTVYLQMNSLKPEDTAVYYCAADYWYDYYSTEYDYWGQGTQVTVSS”, the “polyreactivity (PSR sort gate)” value is listed as “low polyreactivity”. Take “QVQLVESGGGLVQAGGSLRLSCAASGFTFPANDMGWYIQAPGKERELVATITWSGGNTYYADSVKGRFTISRDNAKNTVYLQMNSLKPEDTAVYYCAKDYDPYHEQQSSEHDDYWGQGTQVTVSS”: the “polyreactivity (PSR sort gate)” value is “low polyreactivity”.

In the case of “QVQLVESGGGLVQAGGSLRLSCAASGFTFPDNAMGWYRQAPGKERELVAAITTSGGRTYYADSVKGRFTISRDNAKNTVYLQMNSLKPEDTAVYYCARPSRRTGREYGYWGQGTQVTVSS”, the “polyreactivity (PSR sort gate)” value is “high polyreactivity”. Turning to “QVQLVESGGGLVQAGGSLRLSCAASGFTFPDYAMGWYRQAPGKERELVAAISSDCSTYYADSVKGRFTISRDNAKNTVYLQMNSLKPEDTAVYYCAAYVVWLYGYDYWGQGTQVTVSS”, the “polyreactivity (PSR sort gate)” value is on record as “low polyreactivity”. The value for “QVQLVESGGGLVQAGGSLRLSCAASGFTFPGNAMGWYRQAPGKEREFVAAITRSSGSTSYADSVKGRFTISRDNAKNTVYLQMNSLKPDDTAVYRDYWGLGTQVTVSS” was “low polyreactivity”. “QVQLVESGGGLVQAGGSLRLSCAASGFTFPLNAMGWYRQAPGKERELVAAITNGGTTYYADSVKGRFTISRDNAKNTVYLQMNSLKPEDTAVYYCNAQATPYEGRYDESEYDYWGQGTQVTVSS”: the “polyreactivity (PSR sort gate)” value was “low polyreactivity”. Turning to “QVQLVESGGGLVQAGGSLRLSCAASGFTFPLNAMGWYRQAPWKERELVAAITNGGTTYYADSVKGRFTISRDNAKNTVYLQMNSLKPEDTGVYYCAAYTYRYGSFKYGYWGQGTQVTVSS”, the “polyreactivity (PSR sort gate)” value was “low polyreactivity”. Regarding “QVQLVESGGGLVQAGGSLRLSCAASGFTFPNNAMGWYRQAPGKERELVAAITWSGGSTYADSVKGRFTISRDNAKNTVYLQMNSLKPEDTAVYYCNTRGTYLSKTLPSAYDYWGQGTQVTVSS”, the “polyreactivity (PSR sort gate)” value is given as “low polyreactivity”.

For the sequence “QVQLVESGGGLVQAGGSLRLSCAASGFTFPNYAMGWYRQAPGKERELVAAITSGGGRTNYADSVKGRFTISRDNAKNTVYLQMNSLKPEDTAVYYCNAEKTYLGSRYRPYNYWGQGTQVTVSS”, the “polyreactivity (PSR sort gate)” value is recorded as “low polyreactivity”.

For the sequence “QVQLVESGGGLVQAGGSLRLSCAASGFTFPNYAMGWYRQAPGKERELVAAITSGGGRTNYADSVKGRFTISRDNAKNTVYLQMNSLKPVDTAVYYCAKTRVRGSEFGYWGQGTQVTVSS”, the “polyreactivity (PSR sort gate)” value is “low polyreactivity”. Consider “QVQLVESGGGLVQAGGSLRLSCAASGFTFPRNVMGWYRQAPGKERELVATISSGGRTNYADSVKGRFTISRDNAKNTVYLQMNSLKPEDTAVYYCAARVYTYYYDLHKRYYWGQGTQVTVSS”, for which the “polyreactivity (PSR sort gate)” value is “high polyreactivity”. With “QVQLVESGGGLVQAGGSLRLSCAASGFTFPRYAMGWYRQAPGKERELVAAISYRGGSTYYADSVKGRFTISRDTAKNTVYLQMNSLKPEDTAVSYCNAVGGPVRGYPYDYWGQGTQVTVSS”, the “polyreactivity (PSR sort gate)” value is listed as “high polyreactivity”. The value for “QVQLVESGGGLVQAGGSLRLSCAASGFTFPRYAMGWYRQAPGKERELVAAITTSVGNTYYADSVKGRFTISRDNAKNTVYLQMNSLKPEDTAVYYCSTIYDHFDYWGQGTQVTVSS” was “low polyreactivity”; that for “QVQLVESGGGLVQAGGSLRLSCAASGFTFPRYAMGWYRQAPGKVRQLVAAISYRGGRTYYADSVKWRFTISRDNAKNTVFLQMNSLKPEDTAVYYCAADKTPSARYDYWGQGTQVTVSS” was “high polyreactivity”. Regarding “QVQLVESGGGLVQAGGSLRLSCAASGFTFPSYAMAWYRQDPGKEREFVAGITKGGGNTYYADAVKGRFTISRDNAKNTVYLQKNSLKQEDTAVYYCSADRSSFYWSHGTVYGYDYWGQGTQVTVSS”, the “polyreactivity (PSR sort gate)” value is reported as “low polyreactivity”.

For “QVQLVESGGGLVQAGGSLRLSCAASGFTFPSYAMGWYRQAPGKERELVAAISQRGGSTYYADSVKGRFTISRDNAKNTVYLQMNSLKPEDTAVYYCAALAPRTGRPTYGYWGQGTQVTVSS”, the “polyreactivity (PSR sort gate)” value is given as “low polyreactivity”. With “QVQLVESGGGLVQAGGSLRLSCAASGFTFPSYAMGWYRQAPGKERELVAAISSRGGSTYYADSVKGRFTISRDNAKNTVYLQMNSLKPEDTAVYYCNRLQVYSYYPYYPWYNYWGQGTQVTVSS” the entry was “high polyreactivity”; with “QVQLVESGGGLVQAGGSLRLSCAASGFTFPTYAMGWYRQAPGKERELVAAISTSGARTYYADSVKGRFTISRDNAKNTVYLQMNSLKPEDTAVYYCAAVFKAGSAYDYWGQGTQVTVSS”, “high polyreactivity”; with “QVQLVESGGGLVQAGGSLRLSCAASGFTFPVYAMGWYRQAPGKEREFVAAITYIGGSTYADSVKGRFTISRDNAKNTVYLQMNSLKPEDTAVYYCNADDARLFDYWGQGTQVTVSS”, “low polyreactivity”.

“QVQLVESGGGLVQAGGSLRLSCAASGFTFPWNVMGWYRQAPGKERELVAAITYDGGGTYADSVKGRFTISRDNAKNTVYLQMNSLKPEDTEVYFCNADLIYGEVYDYWGQGTQVTVSS”: the “polyreactivity (PSR sort gate)” value is “low polyreactivity”.

Take “QVQLVESGGGLVQAGGSLRLSCAASGFTFPWYAMGWYRQAPGKERELVASISYRGDSTYYSDSVKGRFTISRDNAKNTVYLQMNSLKPEDTAVYYCADDYLWYNYAGQVDHDYDYWGQGTQVTVSS”: the “polyreactivity (PSR sort gate)” value is reported as “low polyreactivity”. With “QVQLVESGGGLVQAGGSLRLSCAASGFTFPYNAMGWYRQAPGKERELVAAISSTGGITYYADSVKGRFTISRDNEKNTVYLQMNSLKPEDTAVYYCNAGYPDYDWTWWHISYDYWGQGTQVTVSS” the entry was “low polyreactivity”. The value for “QVQLVESGGGLVQAGGSLRLSCAASGFTFPYNAMGWYSQARGKERELVAAISRSGTRTYYADSVKGRFTISRDNAKNTVYLQMNSLKPEDTAVYYCNARAAGYSRRGPGFDYWGQGTQVTVSS” was “high polyreactivity”; that for “QVQLVESGGGLVQAGGSLRLSCAASGFTFPYYAMGWYRQAPGKERELVAAITGRGGSTYYADSVKGRFTISRDNAKNTVYLQMNSLKPVDTAVFYCNAVRFAIHLADPYDYWGQGTQVTVSS” was “high polyreactivity”; that for “QVQLVESGGGLVQAGGSLRLSCAASGFTFPYYAMGWYSQAPGKERELVAAINRSGGITYYADSVRGRFTISRDNAKNTVYLQMKSLKPEDTAVYYCAAPSFGYRTWSVFGSGHDYWGQGTQVTVSS” was “high polyreactivity”. The value for “QVQLVESGGGLVQAGGSLRLSCAASGFTFPYYSMGWYRQAPGTERELVAPISYNGGSTYYADSVMGRFTISRDNAKNTVYLQMNSRNPEDTAVYYCNAVYSDSGVVGYYYWGQGTQVTVSS” was “high polyreactivity”. For the sequence “QVQLVESGGGLVQAGGSLRLSCAASGFTFQENAMGWYRQAPGKERELVAAISKSGGITYYADSVKGRFTISRDNAKNTVYLHMNSLKPEDTAVYYCNKGNAYVVYTSGYDYWGQGTQVTVSS”, the “polyreactivity (PSR sort gate)” value is on record as “low polyreactivity”.
